Data: patent publication US20150293026A1, “Automated system for tissue histomorphometry” (priority 2010, published 2015)

System: mineralizing bone surface and GFP labeled osteoblast surface of long bones (femur)
Assay: Automated bone histomorphometry of femur trabecula in PTH treated GFP reporter mice
Format: in vivo
Settings: for AC measurements CL (common surface area of GFP marked osteoblast and AC stained label/bone surface area) / AC measurements NCL (surface area of AC stained label only/bone surface area) / AC measurements TL (total AC stained label area/bone surface area) / GFP measurements CL / GFP measurements NCL / GFP measurements TL: femur trabecula, day 7, mean
Procedure: The combination of image analysis techniques (registration, segmentation, smoothing and thresh-holding) is amenable to automating histomorphometry analysis. We have used long bones (femur) of PTH treated, skeletally mature mice (8˜9 month old) whose transgenic expression of Col3.6GFP or Col2.3GFP is expected to be uniformly low. Each study had 2 groups of treatment experiments, one that is PTH treated and one that is vehicle (0.001 N HCl containing 1 mg/ml BSA) treated. Each treated study was terminated 1 day after 2 days, 3 days, and 7 days dose of treatment has been administered. A single red fluorochrome label (AC, alizarin complexone, 30 mg/Kg IP) has been administered concurrently with the final PTH dose approximately 24 hours prior to end of each study. The experimental quantification includes GFP labeled osteoblast surface, mineralizing bone surface and total bone surface.
We need to measure both the AC stained label areas and GFP marked osteoblast areas that are commonly related to the same bone surface region. Often, the distance between the AC stained labels and the GFP marked osteoblast are not uniform, and sometimes they may be located far away. Our approach is to find the reference bone surfaces first, and then move the related AC stained labels and GFP marked osteoblast onto the reference bone surfaces using morphological transformation. FIG. 7(b) is the transformed image of FIG. 7(a). The red and green colors show, respectively, the AC stained labels and the GFP marked osteoblast on the bone surface. The yellow color is introduced to represent the common areas of AC stained labels and GFP marked osteoblast. From this projected image, we are able to calculate the ratios of the AC stained labels and GFP marked osteoblast of interest.
Here PTH treated and vehicle treated studies use poBCol3.6GFP-Tpz and pOBCol2.3GFP-Emd, respectively, where the former is control and the latter is test. The measurement follows the bone volume measurement guideline presented in [Parfitt et al., 1987]. In Table 3, the following notations are used and each measurement is the percentage of 2D perimeter measurement over the total 2D bone surface area (Red=AC measurements, Cyan=GFP measurements).
TL=total AC stained label area/bone surface area; CL=common surface area of the GFP marked osteoblast and AC stained label/bone surface area; NCL=surface area of the AC stained label only/bone surface area; TG=total surface area of the green GFP marked osteoblast/bone surface area; GL=common surface area of the GFP marked osteoblast and AC stained label/bone surface area; NGL=surface area of the GFP marked osteoblast only/bone surface area.

B1: PTH: PTH given to skeletally mature transgenic GFP reporter mice for 2, 3 or 7 days; anticipated bone-forming effect (peptide, UniProt P01270 32-115, looked up)
Parathyroid hormone: SVSEIQLMHNLGKHLNSMERVEWLRKKLQDVHNFVALGAPLAPRDAGSQRPRKKEDNVLVESHEKSLGEADKADVNVLTKAKSQ
modifications: Parathyroid hormone
In the case of B1, the “AC measurements CL (common surface area of GFP marked osteoblast and AC stained label/bone surface area)” value (Col 2.3-Emd mice) is reported as 3.82%, the “AC measurements NCL (surface area of AC stained label only/bone surface area)” value (Col 2.3-Emd mice) is reported as 12.65% and the “AC measurements TL (total AC stained label area/bone surface area)” value (Col 2.3-Emd mice) is reported as 16.48%. For the same molecule, the “GFP measurements CL” value (Col 2.3-Emd mice) was 3.82%, the “GFP measurements NCL” value (Col 2.3-Emd mice) was 8.00% and the “GFP measurements TL” value (Col 2.3-Emd mice) was 11.83%. For the same molecule, the “AC measurements CL (common surface area of GFP marked osteoblast and AC stained label/bone surface area)” value (Col 3.6-Tpz mice) was 5.47%, the “AC measurements NCL (surface area of AC stained label only/bone surface area)” value (Col 3.6-Tpz mice) was 25.48% and the “AC measurements TL (total AC stained label area/bone surface area)” value (Col 3.6-Tpz mice) was 31.23%. The “GFP measurements CL” value (Col 3.6-Tpz mice) was 5.74%, the “GFP measurements NCL” value (Col 3.6-Tpz mice) was 4.24% and the “GFP measurements TL” value (Col 3.6-Tpz mice) was 9.99%. For the same molecule, the “calcified bone areas (TL), PTH treated case compared with vehicle treated case” value (day 7, in words) was “more calcified bone areas (TL)” and the “number of GFP marked osteoblast (TG), PTH treated case compared with vehicle treated case” value (day 7, in words) was “more”.
